Where “and” joins values, the source holds several entries; their conditions need not be identical. Equal entries are not always repeated.

Here are results for four molecules from PMC4420033, “Structure and heme-binding properties of HemQ (chlorite dismutase-like protein) from Listeria monocytogenes” (Archives of Biochemistry and Biophysics, 2015).

Data set [1] addresses T1, LmCld (chlorite dismutase-like protein, HemQ) (Listeria monocytogenes, UniProt Q8Y5F1).
T1 construct: gene chdC; N-terminal StrepII-tag, TEV-cleavable (cleaved for crystallization); recombinant in E. coli Tuner (DE3); subunit approx. 30 kDa; hexamer approx. 180 kDa in solution, pentamer in crystal
T1 sequence (Q8Y5F1 1-251): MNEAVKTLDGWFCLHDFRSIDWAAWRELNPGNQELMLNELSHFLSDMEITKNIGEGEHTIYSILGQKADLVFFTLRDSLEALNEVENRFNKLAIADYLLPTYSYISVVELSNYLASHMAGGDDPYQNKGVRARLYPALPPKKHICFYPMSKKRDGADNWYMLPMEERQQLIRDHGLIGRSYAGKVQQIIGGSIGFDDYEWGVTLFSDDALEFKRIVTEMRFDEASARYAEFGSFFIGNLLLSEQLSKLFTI
Kind of data set: electronic circular dichroism titration, Soret minimum […] nm, Hill fit. Format: binding.

Data set [2] concerns the molecule itself. Kind of data set: SEC-MALS; Superdex 200 10/300 GL, Dulbecco PBS plus 200 mM NaCl, 0.75 mL per min, 50 ug protein injected.
Data set [3] concerns the molecule itself. Kind of data set: crystal structure; apo-LmCld, 0.1 M Tris pH 8.5, 0.6 M potassium sodium tartrate, 8% glycerol; 2.0 A, space group P 1 21 1.

A word on the Kd: it is the free concentration of one partner at which half of the binding sites on the other are occupied at equilibrium, for simple one-to-one binding. In the case of `C=CC1=C(C)C2=Cc3c(C=C)c(C)c4[n]3[Fe]([Cl])[n]3c(c(C)c(CCC(=O)O)c3=CC3=NC(=C4)C(C)=C3CCC(=O)O)=CC1=N2` [hemin], in data set [1], binding was put at a Kd of 7.2 ± 0.5 µM.

B1: apo-LmCld (heme-free chlorite dismutase-like protein from Listeria monocytogenes) (natural protein, UniProt Q8Y5F1 1-251, looked up)
chain: T1 sequence (Q8Y5F1 1-251)
notes: Chlorite dismutase-like protein (HemQ) of Listeria monocytogenes; subunit of about 30 kDa; Heme-free form; The template was strain L028, the ORF annotation is of strain EGD-e; The tag is TEV-cleavable; also called HemQ; Cld-like protein
A word on the stoichiometry N: it is a count of units in the complex or per binding partner. With B1, the “stoichiometry N” value in data set [2] is 6 subunits and 12 subunits.

B2: apo-LmCld, StrepII-tag cleaved off (as crystallized) (natural protein, Listeria monocytogenes, UniProt Q8Y5F1 1-251, looked up)
chain: T1 sequence (Q8Y5F1 1-251)
notes: Chlorite dismutase-like protein (HemQ) of Listeria monocytogenes; Heme-free; homopentamer in the crystal lattice; also called HemQ; LmCld (4WWS); source: E. coli Tuner (DE3), purified (StrepTrap, TEV cleavage, Superdex 200); not shown: StrepII, N-terminal, cleaved
As to B2, the “stoichiometry N” value in data set [3] came out at 5 subunits.

B3: holo-LmCld (heme b-bound chlorite dismutase-like protein from Listeria monocytogenes) (natural protein, UniProt Q8Y5F1 1-251, looked up)
chain: T1 sequence (Q8Y5F1 1-251)
notes: Chlorite dismutase-like protein (HemQ) of Listeria monocytogenes; subunit of about 30 kDa; heme is partly lost in the high-salt running buffer of the SEC-MALS; also called HemQ; Cld-like protein
For the molecule B3, the “stoichiometry N” value in data set [2] is 6 subunits and 12 subunits.
